From article PMC7255924 (The FEBS journal, 2019)

Target: T1, C3 domain of Streptococcus mutans adhesin P1 (recombinant C3 polypeptide, 175-residue construct) (Streptococcus mutans)
T1 chain: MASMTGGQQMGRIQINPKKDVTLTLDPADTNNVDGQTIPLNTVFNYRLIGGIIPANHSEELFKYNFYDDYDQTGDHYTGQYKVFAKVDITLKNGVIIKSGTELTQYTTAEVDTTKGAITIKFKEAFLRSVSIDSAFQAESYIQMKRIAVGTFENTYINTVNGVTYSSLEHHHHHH
Experiment: ITC

B1: A3VP1 (386–864) polypeptide of Streptococcus mutans adhesin P1 (domain or fragment)
chain: AANEADYQAKLTAYQTELARVQKANADAKAAYEAAVAANNAANAALTAENTAIKKRNADAKADYEAKLAKYQADLAKYQKDLADYPVKLKAYEDEQASIKAALAELEKHKNEDGNLTEPSAQNLVYDLEPNANLSLTTDGKFLKASAVDDAFSKSTSKAKYDQKILQLDDLDITNLEQSNDVASSMELYGNFGDKAGWSTTVSNNSQVKWGSVLLERGQSATATYTNLQNSYYNGKKISKIVYKYTVDPKSKFQGQKVWLGIFTDPTLGVFASAYTGQVEKNTSIFIKNEFTFYDEDGKPINFDNALLSVASLNRENNSIEMAKDYTGKFVKISGSSIGEKNGMIYATDTLNFRQGQGGARWTMYTRASEPGSGWDSSDAPNSWYGAGAIRMSGPNNSVTLGAISSTLVVPADPTMAIETGKKPNIWYSLNGKIRAVNVPKVTKEKPTPPVKPTAPTKPTYETEKPLKPAPVAPNYEKE
KD of the site with intermediate binding constant (two-site fit): 35.2 ± 7 µM
